Legend:
PTH1 receptor (PTH1R) [1] = molecular target: T1, PTH1 receptor (PTH1R) (Homo sapiens, UniProt Q03431); experiment: competitive fluorescence anisotropy displacement of PTH([…])TMR; type: binding
T1 construct: PTH1R in membrane fractions of transfected HEK293 cells
T1 sequence (Q03431 27-593): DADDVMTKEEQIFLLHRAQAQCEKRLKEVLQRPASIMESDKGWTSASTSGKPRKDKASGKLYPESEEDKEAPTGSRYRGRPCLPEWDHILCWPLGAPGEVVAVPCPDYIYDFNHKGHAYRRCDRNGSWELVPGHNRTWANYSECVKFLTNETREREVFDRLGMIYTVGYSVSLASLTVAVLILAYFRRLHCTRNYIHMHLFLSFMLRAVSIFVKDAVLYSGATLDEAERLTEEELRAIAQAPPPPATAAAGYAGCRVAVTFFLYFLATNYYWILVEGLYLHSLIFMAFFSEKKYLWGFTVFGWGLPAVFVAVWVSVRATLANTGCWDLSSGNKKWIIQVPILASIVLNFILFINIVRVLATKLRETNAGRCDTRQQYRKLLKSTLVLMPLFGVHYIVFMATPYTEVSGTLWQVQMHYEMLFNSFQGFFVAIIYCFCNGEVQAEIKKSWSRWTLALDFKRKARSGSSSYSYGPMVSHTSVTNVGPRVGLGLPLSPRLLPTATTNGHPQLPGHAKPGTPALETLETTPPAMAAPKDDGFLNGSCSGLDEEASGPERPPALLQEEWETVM

PTH1 receptor (PTH1R) [2] = molecular target: T1, PTH1 receptor (PTH1R); experiment: competitive fluorescence anisotropy displacement of PTH([…])TMR; supported by PTH-CC FRET conformational sensor; type: binding
[3] = molecular target: Parathyroid hormone type 1 receptor (PTH1R) (human) (UniProt Q03431)
[4] = molecular target: Parathyroid hormone type 1 receptor (PTH1R) (human) (UniProt Q03431); experiment: fluorescence polarisation; fluorescence anisotropy, competitive displacement of 2 nM PTH(1–34)^TMR from PTH1R membrane fractions of transfected HEK293 cells; DPBS, 4 hours, room temperature; 96-well plates, 150 µL; IC50 converted to Ki by the Cheng-Prusoff equation

## CC/C=C\C/C=C\C/C=C\C/C=C\C/C=C\C/C=C\CCC(=O)O [DHA, docosahexaenoic acid]
PTH1 receptor (PTH1R) [1]
  Ki: 0.54 ± 0.16 nM

## CC/C=C\C/C=C\C/C=C\C/C=C\C/C=C\CCCC(=O)O [EPA, eicosapentaenoic acid]
PTH1 receptor (PTH1R) [2]
  Ki: 0.69 ± 0.25 nM

## Human PTH(1–34) (peptide)
[3]
  ERK1/2 phosphorylation (Emax = pERKmax/ERK, western blot) in HEK293 cells transfected with PTH1R, PTH(1–34) dose response, 5 minutes; no significant increase in untransfected HEK293 cells: 3.5 pERK/ERK
[4]
  IC50: 3.43 nM
  Ki: 2.4 nM

## Human [Lys-13(Nε-5-carboxy-TMR)]PTH(1–34)NH2 (peptide)
[4]
  Ki: 4.66 nM

— PMC3531455, “PTH1 Receptor Is Involved in Mediating Cellular Response to Long-Chain Polyunsaturated Fatty Acids” (PLoS ONE, 2012)
